Test results: article PMC8519905, “Reproducibility and accuracy of microscale thermophoresis in the NanoTemper Monolith: a multi laboratory benchmark study” (European Biophysics Journal, 2021)
“And” between values parts separate entries of the source, which are not always exact repeats. Equal entries are not always repeated. Each block holds one molecule with its values, some of them ahead of it.

How the values were obtained:
unlabeled lysozyme = biological target: T1, unlabeled lysozyme (Gallus gallus, UniProt P00698); test: label-free microscale thermophoresis (NT.LabelFree); type: binding; settings: unlabelled protein; buffer not printed in main text for this test
T1 construct: gene LYZ; native hen egg white lysozyme (mature chain, signal peptide removed), unlabelled; source printed for the stock used for labelling
T1 sequence (P00698 19-147): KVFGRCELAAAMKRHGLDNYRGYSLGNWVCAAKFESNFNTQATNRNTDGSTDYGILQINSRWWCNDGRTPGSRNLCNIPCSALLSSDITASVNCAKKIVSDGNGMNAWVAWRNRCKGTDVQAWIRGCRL

[1] = biological target: T2, Lysozyme isolated from hen egg white, labeled with RED-NHS 2nd generation dye (Gallus gallus (hen egg white), UniProt P00698, RED-NHS 2nd generation dye, amine reactive; degree of labeling ~0.70); test: other fluorescence titration; analysis of the absolute (initial) fluorescence of the same Monolith datasets; RED-NHS labeled lysozyme as target, nanobody as titrated ligand; PBS+; triplicates on 40 instruments; means over instruments; analysed centrally with MOAA and PALMIST and by 8 of 40 users; settings: both partners purified
T2 construct: lysozyme isolated from hen egg white (ROCHE Cat.No. 10837059001); also called labeled lysozyme; red labeled lysozyme; source: bought: ROCHE Cat.No. 10837059001 (isolated from hen egg white); labeled with the Monolith NT Protein Labeling Kit RED-NHS 2nd Generation
T2 sequence (P00698 19-147): as above

[2] = biological target: T2, Lysozyme isolated from hen egg white, …; test: MST; TRIC analysis of the MST/TRIC time trace; RED-NHS labeled lysozyme as target, nanobody as titrated ligand; PBS+ (10 mM phosphate pH 7.4, 2.7 mM KCl, 137 mM NaCl, 0.005% Tween-20); premium coated capillaries; triplicates on 40 Monolith NT.115/NT.Pico instruments; means over instruments; analysed centrally with MOAA and PALMIST (hot region 0.5-1.5 s) and individually by users; fitted without correction for the …; settings: both partners purified
[3] = biological target: T2, Lysozyme isolated from hen egg white, …; test: as above; settings: both partners purified; remark: listed apart in the source

- Kd (unlabeled lysozyme): ~4000 nM
Molecule: CC(=O)N[C@H]1[C@H](O[C@H]2[C@H](O)[C@@H](NC(C)=O)C(O)O[C@@H]2CO)O[C@H](CO)[C@@H](O[C@@H]2O[C@H](CO)[C@@H](O)[C@H](O)[C@H]2NC(C)=O)[C@@H]1O (stereo partly shown) [NAG3]

- Kd [1]: 256 nM and 259 nM and 272 nM
- Kd [2]: 1170 nM
- Kd [3]: 111 nM and 119 nM and 76 nM
B1: anti-lysozyme nanobody: Cab-Lys3 with T101 of the CDR3 loop mutated to serine (VHH)
VHH: DVQLQASGGGSVQAGGSLRLSCAASGYTIGPYCMGWFRQAPGKEREGVAAINMGGGITYYADSVKGRFTISQDNAKNTVYLLMNSLEPEDTAIYYCAADSSIYASYYECGHGLSTGGYGYDSWGQGTQVTVSS
notes: parent chain is the VHH Cab-Lys3 (De Genst et al. 2002), with T101 in the CDR3 loop changed to serine; 14.2 kDa; also called NB; VHH; source: T7-Express E. coli (pET-22B), purified (Profinity IMAC, Superdex-75)
